Measured values reported in patent US11407825B2, “NaPi2b-targeted polymer antibody-drug conjugates and methods of use thereof” (Mersana Therapeutics, Inc., priority 2018, dated 2022).

Tested on: NaPi2b expressing tumors
Assay: Phase 1b study of XMT-1536: duration on study and reason for discontinuation
Assay type: in vivo, human
Source text: The study presented herein is an open label, multi-center Phase 1b study of XMT-1536 administered as an intravenous infusion once every three or four weeks. The dose escalation (DES) part of the study will establish the maximum tolerated dose (MTD) or recommended Phase 2 dose (RP2D) for XMT-1536 in patients with a number of tumor types likely to express NaPi2b, with a focus on patients with platinum-resistant ovarian cancer and non-squamous non-small cell lung cancer (NSCLC). […] The RP2D may differ from the MTD and may take into account tolerability, pharmacokinetic and pharmacodynamic measures, and efficacy of XMT-1536 based on RECIST 1.1. After the first cycle, patients may continue to receive XMT-1536 until disease progression provided the drug is well-tolerated and patients continue to derive clinical benefit in the opinion of the Investigator. The DES segment of the study utilized an accelerated titration design. The first 3-week cycle of treatment constitutes the dose limiting toxicity (DLT) evaluation period. For the first two dose levels, a minimum of 1 patient was treated at each dose level. If this patient experiences a treatment-emergent adverse event of Grade 2 or higher, 2 additional patients will be added at this dose level, and the study will subsequently follow a 3+3 design, as described below. […] Starting with Dose Level 3, the study will follow a standard 3+3 design, with 3 patients enrolled initially at each dose level. […] However, in the event of 1 DLT, 3 additional patients will be enrolled at the same dose level. Any dose level with 2 or more DLTs will be considered to exceed the MTD and subsequent patients will be enrolled at lower dose level(s). After the first cycle, patients may continue to receive XMT-1536 until disease progression if the drug is well-tolerated and patients continue to derive clinical benefit in the opinion of the Investigator.
After an August 2018 protocol amendment, each cycle will be 4-week (28 day) dose cycle. The first two, 4-week cycles of treatment (56 days) constitutes the dose limiting toxicity (DLT) evaluation period. Beginning with this amendment, up to 10 patients will be enrolled for evaluation at 20.0 mg/m^2 under the new 4-week cycle dose regimen. If that dose is cleared by the SRC, subsequent dose groups will follow a modified 3+3 design. Three patients will be enrolled initially and if toxicity issues arise, the SRC will review all pertinent data and may decide to add more patients to fully evaluate a dose in question and/or lower the dose. […] The observation period for DLTs is 56 days, between Day 1 through the end of Cycle 2 which includes the pre-dose assessments before receiving the Cycle 3 dose. A maximum of ten patients will be enrolled per dose level prior to the SRM. that will be conducted no later than 5 days after at least the sixth patient dosed in each level has completed Cycle 2, Day 28 evaluations. The data available for the patients dosed in all prior will be factored into the data review for each applicable dose escalation SRM. Any dose level with 2 or more DLTs occurring in 6 or fewer treated patients will be considered to exceed the MTD and subsequent patients will be enrolled at lower dose level(s). After the second cycle, patients may continue to receive XMT-1536 until disease progression if the drug is well-tolerated and patients continue to derive clinical benefit in the opinion of the Investigator. After completion of DES, the EXP segment of the study will be opened.
Treatment will continue indefinitely unless one of the following occurs: disease progression, inter-current illness that prevents further administration of treatment, unacceptable adverse events or pregnancy, patient non-compliance with the protocol, patient withdraws consent for participation from the study, and/or general or specific changes in the patient's condition render the patient unacceptable for further treatment in the judgment of the Investigator.

[1] = doses of 20 mg/m^2 and higher (n=18)

B1: XMT-1536: about 10-15 molecules of auristatin F-hydroxypropyl amide conjugated to a cysteine moiety of NaPi2b monoclonal antibody XMT-1535 via a PHF scaffold (conjugate, chains of the INN, looked up)
VH: QVQLVQSGAEVVKPGASVKMSCKASGYTFTGYNIHWVKQAPGQGLEWIGAIYPGNGDTSYKQKFRGRATLTADTSTSTVYMELSSLRSEDSAVYYCARGETARATFAYWGQGTLVTVSS
VL: DIQMTQSPSSLSASVGDRVTITCSASQDIGNFLNWYQQKPGKTVKVLIYYTSSLYSGVPSRFSGSGSGTDYTLTISSLQPEDFATYYCQQYSKLPLTFGQGTKLELK
modifications: auristatin F-hydroxypropyl amide via PHF scaffold
notes: about 10-15 molecules of auristatin F-hydroxypropyl amide conjugated to a cysteine moiety of NaPi2b monoclonal antibody XMT-1535 via a PHF scaffold
Treatment duration >16 weeks (All NSCLC, N 3): 33%
Treatment duration >16 weeks, patients (All NSCLC, N 3): 1
Treatment duration >16 weeks (All Ovarian Cancer (OC), N 19): 42%
Treatment duration >16 weeks, patients (All Ovarian Cancer (OC), N 19): 8
discontinued for Progressive Disease per RECIST, patients (DL1 3 mg/m^2, n = 1): 1
discontinued for Progressive Disease per RECIST, patients (DL2 6 mg/m^2, n = 1): 1
discontinued for Clinical Progression, patients (DL3 12 mg/m^2, n = 7): 4
discontinued for Progressive Disease per RECIST, patients (DL3 12 mg/m^2, n = 7): 3
discontinued for Clinical Progression, patients (DL4 & 4A 20 mg/m^2, n = 13): 2
discontinued for Progressive Disease per RECIST, patients (DL4 & 4A 20 mg/m^2, n = 13): 7
discontinued for Clinical Progression, patients (DL5 & 5A 30 mg/m^2, n = 11): 3
discontinued for Progressive Disease per RECIST, patients (DL5 & 5A 30 mg/m^2, n = 11): 6
Treatment duration >16 weeks (NSCLC ≥ 20 mg/m^2, N 2): 50%
Treatment duration >16 weeks, patients (NSCLC ≥ 20 mg/m^2, N 2): 1
Treatment duration >16 weeks (OC + NSCLC ≥ 20 mg/m^2, N 18): 56%
Treatment duration >16 weeks, patients (OC + NSCLC ≥ 20 mg/m^2, N 18): 10
Treatment duration >16 weeks (OC ≥ 20 mg/m^2, N 16): 57%
Treatment duration >16 weeks, patients (OC ≥ 20 mg/m^2, N 16): 9
Treatment duration >16 weeks (OC ≥ 30 mg/m^2, N 7): 43%
Treatment duration >16 weeks, patients (OC ≥ 30 mg/m^2, N 7): 3
discontinued for Clinical Progression (Total, n = 34): (26%)
discontinued for Clinical Progression, patients (Total, n = 34): 9
discontinued for Progressive Disease per RECIST (Total, n = 34): (53%)
discontinued for Progressive Disease per RECIST, patients (Total, n = 34): 18
treatment duration of >16 weeks [1]: 50%
treatment duration of >16 weeks, patients [1]: 9
